Assays:
[1] = test system: HeLa Kyoto; test: solubility change mitosis vs G1/S (difference of NP-40 vs SDS log2 ratios) (log2 ratio difference); higher = more soluble in mitosis
[2] = test system: HeLa Kyoto; test: thermal stability score vs G1/S (z-score of summed log2 fold changes over temperatures); higher = more thermally stable than in G1/S
[3] = test system: HeLa Kyoto; test: melting temperature (median over replicates), in situ; higher = more thermally stable
[4] = test system: HeLa Kyoto; test: solubility in G1/S (NP-40 vs SDS abundance) (log2 ratio); higher = more soluble; settings: cell cycle stage: G1/S
[5] = cell cycle stage: early G1 (4.5 h after nocodazole release)
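Wherever melting temperature (median over replicates), in situ is given: HeLa Kyoto cells synchronized by double thymidine or nocodazole block, proteins quantified by TMT10plex mass spectrometry, three independent biological replicates.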
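Wherever solubility change mitosis vs G1/S (difference of NP-40 vs SDS log2 ratios) is given: synchronized HeLa Kyoto cells (double thymidine block for G1/S, nocodazole release for mitosis), protein amounts in NP-40 versus SDS lysates quantified by mass spectrometry, three biological replicates.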
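Wherever solubility in G1/S (NP-40 vs SDS abundance) is given: HeLa Kyoto cells arrested at G1/S by double thymidine block, proteins quantified by TMT10plex mass spectrometry in mild NP-40 versus SDS extracts, three biological replicates.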
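Wherever thermal stability score vs G1/S (z-score of summed log2 fold changes over temperatures) is given: synchronized HeLa Kyoto cells, proteins quantified by TMT10plex mass spectrometry, three biological replicates, mitosis taken 0.5 h after nocodazole release, G1/S directly after double thymidine block.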

MAEAMDLGKDPNGPTHSSTLFVRDDGSSMSFYVRPSPAKRRLSTLILHGGGTVCRVQEPGAVLLAQPGEALAEASGDFISTQYILDCVERNERLELEAYRLGPASAADTGSEAKPGALAEGAAEPEPQRHAGRIAFTDADDVAILTYVKENARSPSSVTGNALWKAMEKSSLTQHSWQSLKDRYLKHLRGQEHKYLLGDAPVSPSSQKLKRKAEEDPEAADSGEPQNKRTPDLPEEEYVKEEIQENEEAVKKMLVEATREFEEVVVDESPPDFEIHITMCDDDPPTPEEDSETQPDEEEEEEEEKVSQPEVGAAIKIIRQLMEKFNLDLSTVTQAFLKNSGELEATSAFLASGQRADGYPIWSRQDDIDLQKDDEDTREALVKKFGAQNVARRIEFRKK [TERF2IP]
solubility change mitosis (log2) [1]: 0.0568 | thermal stability score [2, 5]: 1.96 | thermal stability score ([2]; cell cycle stage: mitosis): 1.16 | melting temperature ([3]; cell cycle stage: G1/S): 49.8 °C | melting temperature ([3]; cell cycle stage: mitosis): 52.4 °C | solubility in G1/S (log2) [4]: 0.503

MAEAVLRVARRQLSQRGGSGAPILLRQMFEPVSCTFTYLLGDRESREAVLIDPVLETAPRDAQLIKELGLRLLYAVNTHCHADHITGSGLLRSLLPGCQSVISRLSGAQADLHIEDGDSIRFGRFALETRASPGHTPGCVTFVLNDHSMAFTGDALLIRGCGRTDFQQGCAKTLYHSVHEKIFTLPGDCLIYPAHDYHGFTVSTVEEERTLNPRLTLSCEEFVKIMGNLNLPKPQQIDFAVPANMRCGVQTPTA [ETHE1]
solubility change mitosis (log2) [1]: -0.0383 | thermal stability score [2, 5]: -1 | thermal stability score ([2]; cell cycle stage: mitosis): -1.06 | melting temperature ([3]; cell cycle stage: G1/S): 56.6 °C | melting temperature ([3]; cell cycle stage: mitosis): 56.5 °C | solubility in G1/S (log2) [4]: 0.214

MAEDDPYLGRPEQMFHLDPSLTHTIFNPEVFQPQMALPTDGPYLQILEQPKQRGFRFRYVCEGPSHGGLPGASSEKNKKSYPQVKICNYVGPAKVIVQLVTNGKNIHLHAHSLVGKHCEDGICTVTAGPKDMVVGFANLGILHVTKKKVFETLEARMTEACIRGYNPGLLVHPDLAYLQAEGGGDRQLGDREKELIRQAALQQTKEMDLSVVRLMFTAFLPDSTGSFTRRLEPVVSDAIYDSKAPNASNLKIVRMDRTAGCVTGGEEIYLLCDKVQKDDIQIRFYEEEENGGVWEGFGDFSPTDVHRQFAIVFKTPKYKDINITKPASVFVQLRRKSDLETSEPKPFLYYPEIKDKEEVQRKRQKLMPNFSDSFGGGSGAGAGGGGMFGSGGGGGGTGSTGPGYSFPHYGFPTYGGITFHPGTTKSNAGMKHGTMDTESKKDPEGCDKSDDKNTVNLFGKVIETTEQDQEPSEATVGNGEVTLTYATGTKEESAGVQDNLFLEKAMQLAKRHANALFDYAVTGDVKMLLAVQRHLTAVQDENGDSVLHLAIIHLHSQLVRDLLEVTSGLISDDIINMRNDLYQTPLHLAVITKQEDVVEDLLRAGADLSLLDRLGNSVLHLAAKEGHDKVLSILLKHKKAALLLDHPNGDGLNAIHLAMMSNSLPCLLLLVAAGADVNAQEQKSGRTALHLAVEHDNISLAGCLLLEGDAHVDSTTYDGTTPLHIAAGRGSTRLAALLKAAGADPLVENFEPLYDLDDSWENAGEDEGVVPGTTPLDMATSWQVFDILNGKPYEPEFTSDDLLAQGDMKQLAEDVKLQLYKLLEIPDPDKNWATLAQKLGLGILNNAFRLSPAPSKTLMDNYEVSGGTVRELVEALRQMGYTEAIEVIQAASSPVKTTSQAHSLPLSPASTRQQIDELRDSDSVCDSGVETSFRKLSFTESLTSGASLLTLNKMPHDYGQEGPLEGKI [NFKB1]
solubility change mitosis (log2) [1]: -0.0714 | thermal stability score [2, 5]: 0.372 | thermal stability score ([2]; cell cycle stage: mitosis): 0.928 | melting temperature ([3]; cell cycle stage: G1/S): 48 °C | melting temperature ([3]; cell cycle stage: mitosis): 48.5 °C | solubility in G1/S (log2) [4]: 0.137

MAEGEDVGWWRSWLQQSYQAVKEKSSEALEFMKRDLTEFTQVVQHDTACTIAATASVVKEKLATEGSSGATEKMKKGLSDFLGVISDTFAPSPDKTIDCDVITLMGTPSGTAEPYDGTKARLYSLQSDPATYCNEPDGPPELFDAWLSQFCLEEKKGEISELLVGSPSIRALYTKMVPAAVSHSEFWHRYFYKVHQLEQEQARRDALKQRAEQSISEEPGWEEEEEELMGISPISPKEAKVPVAKISTFPEGEPGPQSPCEENLVTSVEPPAEVTPSESSESISLVTQIANPATAPEARVLPKDLSQKLLEASLEEQGLAVDVGETGPSPPIHSKPLTPAGHTGGPEPRPPARVETLREEAPTDLRVFELNSDSGKSTPSNNGKKGSSTDISEDWEKDFDLDMTEEEVQMALSKVDASGELEDVEWEDWE [BSDC1]
solubility change mitosis (log2) [1]: -0.201 | thermal stability score [2, 5]: -1.16 | thermal stability score ([2]; cell cycle stage: mitosis): -2.92 | melting temperature ([3]; cell cycle stage: G1/S): 53.3 °C | melting temperature ([3]; cell cycle stage: mitosis): 53.5 °C | solubility in G1/S (log2) [4]: 0.378

From the supplement of paper PMC5998384
